We go through 48 molecules from PMC10343800, “A Novel LSTM-Based Machine Learning Model for Predicting the Activity of Food Protein-Derived Antihypertensive Peptides” (Molecules, 2023).

Ends that are not written are not given here. Peptide text beside a SMILES is read from it.

One assay deals with T1, ACE (Homo sapiens, UniProt P12821). Put plainly: biochemical.
T1 sequence (P12821 30-1306, species assumed): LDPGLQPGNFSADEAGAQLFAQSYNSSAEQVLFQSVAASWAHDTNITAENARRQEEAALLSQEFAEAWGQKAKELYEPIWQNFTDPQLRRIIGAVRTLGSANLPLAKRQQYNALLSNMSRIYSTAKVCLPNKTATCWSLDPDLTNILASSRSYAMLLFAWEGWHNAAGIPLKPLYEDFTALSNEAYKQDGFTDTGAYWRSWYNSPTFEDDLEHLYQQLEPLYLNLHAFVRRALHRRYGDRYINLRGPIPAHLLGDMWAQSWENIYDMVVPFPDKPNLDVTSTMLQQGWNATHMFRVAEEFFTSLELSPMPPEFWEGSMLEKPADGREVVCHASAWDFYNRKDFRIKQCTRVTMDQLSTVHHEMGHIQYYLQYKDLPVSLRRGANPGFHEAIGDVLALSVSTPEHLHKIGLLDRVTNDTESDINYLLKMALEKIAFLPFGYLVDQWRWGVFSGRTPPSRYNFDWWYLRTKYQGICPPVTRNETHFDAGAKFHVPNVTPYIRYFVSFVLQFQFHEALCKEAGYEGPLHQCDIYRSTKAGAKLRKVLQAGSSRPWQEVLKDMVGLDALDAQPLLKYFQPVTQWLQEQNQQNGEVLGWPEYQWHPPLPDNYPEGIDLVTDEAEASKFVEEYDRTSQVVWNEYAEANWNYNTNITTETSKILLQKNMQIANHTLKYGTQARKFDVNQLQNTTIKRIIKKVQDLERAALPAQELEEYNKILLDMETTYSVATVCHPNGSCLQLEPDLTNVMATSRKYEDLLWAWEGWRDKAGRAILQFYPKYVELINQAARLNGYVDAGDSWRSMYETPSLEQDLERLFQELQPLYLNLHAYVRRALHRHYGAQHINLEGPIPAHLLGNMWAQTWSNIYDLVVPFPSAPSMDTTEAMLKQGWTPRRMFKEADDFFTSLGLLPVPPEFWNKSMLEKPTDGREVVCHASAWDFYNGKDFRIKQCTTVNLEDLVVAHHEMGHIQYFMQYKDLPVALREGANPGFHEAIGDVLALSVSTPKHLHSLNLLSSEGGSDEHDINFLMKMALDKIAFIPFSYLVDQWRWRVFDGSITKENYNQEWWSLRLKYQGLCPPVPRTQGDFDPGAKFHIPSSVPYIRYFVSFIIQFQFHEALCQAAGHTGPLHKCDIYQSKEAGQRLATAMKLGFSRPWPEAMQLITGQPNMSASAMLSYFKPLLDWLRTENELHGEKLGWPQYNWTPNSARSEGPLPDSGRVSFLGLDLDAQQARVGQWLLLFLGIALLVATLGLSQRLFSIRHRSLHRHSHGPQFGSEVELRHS
Details: not given
As to the method: An online tool (https://www.genscript.com/sms2/random_protein.html accessed on 1 March 2023) was used to randomly generate peptides in order to test the efficiency of the model. The top peptides with a small number of IC50 values were selected for synthesis. […] The peptides used for validation were synthesized by Genescript with a purity > 97%. The ACE inhibitory assay was performed according to a previous study with modifications. ACE, N-hippuryl-His-Leu tetrahydrate (HHL, Sigma-Aldrich, St. Louis, MI, USA) and the peptide samples were dissolved in 100 mM of boric acid containing 300 mM of NaCl (pH8.3). Firstly, 10 μL of the peptide solution was preincubated with 50 μL of 6.5 mM HHL at 37 °C for 5 min. Then, 5 μL of 0.1UN/mL ACE (preincubated at 37 °C) was added to the reaction system and incubated at 37 °C for another 30 min. The reaction was terminated by adding 85 μL of 1 M HCl. The concentration of hippuric acid (Hip, the reaction product) was measured by HPLC with a C18 column (5 µm, 250 mm × 4.6 mm). The sample (20 μL) was eluted by a gradient of solvent A (H2O with 0.05% TFA) and solvent B (acetonitrile with 0.05% TFA) at a flow rate of 1.2 mL/min. The absorbance at 228 nm was monitored. The concentration of HA was calculated based on its standard curve. The area under each peak was calculated, in which A = the area under the peak of the blank group (without the peptide) and B = the area under the peak of the peptide group. The ACE inhibitory ratio = (A − B)/A. The ACE inhibitory ratio of each peptide at different concentrations was measured.
On to `CC(C)C[C@H](NC(=O)[C@H](C)N)C(=O)N1CCC[C@H]1C(=O)N[C@@H](CC(=O)O)C(=O)O` [ALPD] (H-ALPD-OH), for which the IC50 (commonly the concentration that inhibits the measured activity by half) came to 1.55 µM. `C[C@H](NC(=O)[C@H](CCCCN)NC(=O)[C@H](CC(=O)O)NC(=O)[C@@H](N)Cc1ccccc1)C(=O)O` [FDKA] (H-FDKA-OH) yielded an IC50 of 0.6 µM. Consider `CC[C@H](C)[C@H](NC(=O)[C@@H](N)Cc1ccccc1)C(=O)O` [FI] (H-Phe-Ile-OH), for which the midpoint of inhibition, the IC50, lay at 0.31 µM. Molecule `C[C@H](NC(=O)[C@@H]1CCCN1C(=O)CN)C(=O)N[C@@H](Cc1ccc(O)cc1)C(=O)O` [GPAY] (H-GPAY-OH) yielded an IC50 of 0.37 µM. `CC(C)[C@H](NC(=O)CN)C(=O)N1CCC[C@H]1C(=O)N[C@@H](CCCCN)C(=O)O` [GVPK] (H-GVPK-OH) registered a half-maximal inhibitory concentration (IC50) of 0.25 µM. As to `N=C(N)NCCC[C@H](NC(=O)[C@H](Cc1c[nH]cn1)NC(=O)[C@H](CC(=O)O)NC(=O)[C@@H](N)Cc1c[nH]cn1)C(=O)O` [HDHR] (H-HDHR-OH), the half-maximal inhibitory concentration (IC50) is 0.59 µM. The same measure, in the same setting: in the case of `CC[C@H](C)[C@H](NC(=O)[C@@H]1CCCN1C(=O)[C@H](CCCCN)NC(=O)[C@@H](N)CC(C)C)C(=O)O` [LKPI] (H-LKPI-OH) it was 0.39 µM. On the same count and under the same terms, in the case of `CC(C)C[C@H](NC(=O)[C@@H](NC(=O)[C@@H](N)CC(C)C)C(C)C)C(=O)O` [LVL] (H-Leu-Val-Leu-OH) it was 0.32 µM; in that of FALPC [FALPC], 0.16 µM; in that of IQWCA [IQWCA], 0.1 µM. KLPAY [KLPAY] yielded an IC50 of 0.12 µM. LKPDQ [LKPDQ] gave an IC50 of 0.88 µM. Still for that read-out and setting: next, LKPNS [LKPNS]: 0.5 µM. Same read-out and setting: next, PDFLI [PDFLI]: 0.33 µM; PLPLL [PLPLL]: 0.2 µM; VAWKL [VAWKL]: 0.23 µM. On the same count and under the same terms, in the case of VHLAP [VHLAP] it was 0.33 µM; in that of VYHEL [VYHEL], 0.38 µM.

The same assay, now with this note: 6.5 mM HHL, 0.1 UN/mL ACE, 100 mM boric acid with 300 mM NaCl pH 8.3, 37 °C, 5 min preincubation, 30 min incubation; hippuric acid by HPLC C18, 228 nm; read-out: Experimental IC50.
As to `CC(C)C[C@H](NC(=O)[C@H](CCCCN)NC(=O)[C@@H](N)CC(C)C)C(=O)O` [LKL] (H-Leu-Lys-Leu-OH), the IC50 came out at 0.56 µM. Still for that read-out and setting: next, `N[C@@H](Cc1c[nH]c2ccccc12)C(=O)N[C@@H](CC(=O)O)C(=O)O` [WD] (H-Trp-Asp-OH): 0.51 µM.

The target of another assay is T1, ACE.
Experiment: not given
As to conditions: in vitro ACE inhibition; read-out: Reported IC50; cited from earlier work.
Take AFVGYVLP: the IC50 is 14.4 µM. As for CTFSIPAQC, the half-maximal inhibitory concentration (IC50) was 24.4 µM. Take DAQSAPLRVY: the IC50 was 12.2 µM. Turning to DKVGINYW, the IC50 was 25.4 µM. Consider EKSYELP, for which the IC50 was 18 µM. Take GAAELPCSADWW: the half-inhibitory concentration (IC50) is 11 µM. HLNVVHGN: the half-inhibitory concentration (IC50) is 50.9 µM. IISKIK: the IC50 is 1.19 µM. Regarding ILSKLK, the IC50 was 4.02 µM. On to IPPAYTK, for which the 50% inhibitory concentration (IC50) was 23.5 µM. As for KGYGGVSLPEW, the IC50 was 0.7 µM. Consider KIDKVVK, for which the IC50 is 0.62 µM.

For the molecule LDSPSEGRAPG, the IC50 was 17.9 µM.

With LEEFCC, the IC50 was 1.85 µM.

As to LLVTLKK, the half-maximal inhibitory concentration (IC50) was 0.95 µM. Regarding LRLESF, the IC50 is 5.39 µM.

For LVLPGE, the IC50 was 13.5 µM. For the molecule LVLPGELAK, the IC50 is 184 µM. In the case of MLPAY, the 50% inhibitory concentration (IC50) was 1.58 µM. For the molecule PAGELHP, the IC50 was 0.5 µM. As to PGSGCAGTDL, the concentration for half-maximal inhibition (IC50) was 57.9 µM. With RDGGYCC, the 50% inhibitory concentration (IC50) is 0.84 µM. With TFQGGlPPHGIQVER (TFQGGPPHGIQVER), the half-maximal inhibitory concentration (IC50) was 3.4 µM.

As for TVTNPARIA, the half-inhibitory concentration (IC50) is 14.5 µM. Take VDSDVVK: the 50% inhibitory concentration (IC50) is 8.64 µM.

For the molecule VELYP, the IC50 is 5.22 µM. For the molecule VISDEDGVTH, the half-maximal inhibitory concentration (IC50) is 8.16 µM. Turning to WQVLPNAVPAK, the IC50 is 1010 µM.
